# Assay results published in patent US20040018971A1 (published 2004).
# B1: Her2/neu.1174.F1I8 (peptide)
# peptide: FPGKNGVI
# notes: 8-mer analog of the HER2/neu peptide starting at position 1174
# B2: HER2/neu peptide, position 90, 10 amino acids (peptide)
# peptide: QVRQVPLQRL
# notes: Synthetic peptide; also called HER2/neu 90-99
# B3: HER2/neu peptide, position 627, 9 amino acids (peptide)
# peptide: PINCTHSCV
# notes: Synthetic peptide; also called HER2/neu 627-635
# B4: HER2/neu peptide, position 711, 10 amino acids (peptide)
# peptide: QMRILKETEL
# notes: Synthetic peptide; also called HER2/neu 711-720
# B5: HER2/neu peptide, position 999, 10 amino acids (peptide)
# peptide: PLDSTFYRSL
# notes: Synthetic peptide; also called HER2/neu 999-1008
# B6: HER2/neu peptide, position 1119, 10 amino acids (peptide)
# peptide: PLPSETDGYV
# notes: Synthetic peptide; also called HER2/neu 1119-1128
# B7: HER2/neu peptide, position 828, 9 amino acids (peptide)
# peptide: QIAKGMSYL
# notes: Synthetic peptide; also called HER2/neu 828-836
# B8: HER2/neu peptide, position 24, 10 amino acids (peptide)
# peptide: QVCTGTDMKL
# notes: Synthetic peptide; also called HER2/neu 24-33
# B9: HER2/neu peptide, position 484, 9 amino acids (peptide)
# peptide: QLFRNPHQA
# notes: Synthetic peptide; also called HER2/neu 484-492
# B10: HER2/neu peptide, position 160, 9 amino acids (peptide)
# peptide: QLCYQDTIL
# notes: Synthetic peptide; also called HER2/neu 160-168
# B11: HER2/neu peptide, position 54, 9 amino acids (peptide)
# peptide: QVVQGNLEL
# notes: Synthetic peptide; also called HER2/neu 54-62
# B12: HER2/neu peptide, position 166, 10 amino acids (peptide)
# peptide: TILWKDIFHK
# notes: Synthetic peptide; also called Her2/neu.166
# B13: HER2/neu peptide, position 402, 10 amino acids (peptide)
# peptide: TLEEITGYLY
# notes: Synthetic peptide; also called Her2/neu.402
# B14: HER2/neu peptide, position printed as 515 (read as 545), 10 amino acids (peptide)
# peptide: RVLQGLPREY
# notes: The row follows '545; 8 then 545; 10 at the same point
# B15: HER2/neu peptide, position 296, 8 amino acids (peptide)
# peptide: VTACPYNY
# notes: Synthetic peptide; also called Her2/neu.296
# B16: HER2/neu peptide, position 293, 9 amino acids (peptide)
# peptide: ASCVTACPY
# notes: Synthetic peptide; also called Her2/neu.293
# Target: HLA-B*0702 (human)
# Experiment: competition vs 125I-labelled probe peptide, purified HLA, gel filtration
row,IC50 [nM],Binder
1,458,B1

# Target: HLA-B*5101 (human)
# Experiment: as above
row,IC50 [nM],Binder
1,177,B1

# Target: HLA-B*5401 (human)
# Experiment: as above
row,IC50 [nM],Binder
1,385,B1

# Target: T1, HLA-A*0201 (purified HLA class I molecule) (human)
# T1 construct: also called HLA-A2.1
# Experiment: competition with 125I-labelled standard peptide for purified HLA, gel filtration
row,relative binding ratio (IC50 of standard peptide / IC50 of test peptide) [ratio],Binder
1,0.0003,"PLTSIISAVV (Synthetic peptide) [HER2/neu peptide, position 650, 10 amino acids]"
2,0.0001,B2
3,0.0002,B3
4,0.0001,B4
5,0.0001,B5
6,0.0001,"PVTGASPGGL (Synthetic peptide) [HER2/neu peptide, position 128, 10 amino acids]"
7,0.0001,"QVPLQRLRIV (Synthetic peptide) [HER2/neu peptide, position 93, 10 amino acids]"
8,0.0001,B6
9,0.0015,"PLTSIISAV (Synthetic peptide) [HER2/neu peptide, position 650, 9 amino acids]"
10,0.0008,"QLRSLTEIL (Synthetic peptide) [HER2/neu peptide, position 141, 9 amino acids]"
11,0.0006,B7
12,0.0001,B8
13,0.0062,B9
14,0.0001,B10
15,0.0002,"PLQPEQLQV (Synthetic peptide) [HER2/neu peptide, position 391, 9 amino acids]"
16,0.0001,B11
17,0.0001,"RACHPCSPM (Synthetic peptide) [HER2/neu peptide, position 190, 9 amino acids]"

# Target: T2, HLA-A*0101 (human)
# T2 construct: also called HLA-A1
# Experiment: competition with 125I-labelled probe peptide for purified HLA-A*0101, gel filtration
row,relative binding ratio,Binder
1,0.0042 ratio (IC50 of standard peptide / IC50 of test peptide),"CVTACPYNY [HER2/neu peptide, position 295, 9 amino acids, listing 1 of 2 here]"
2,0.0017 ratio (IC50 of standard peptide / IC50 of test peptide),"PLPSETDGY [HER2/neu peptide, position 1119, 9 amino acids, listing 1 of 2 here]"
3,0.055 ratio (IC50 of standard peptide / IC50 of test peptide),ASCVTACPY (also called Her2/neu.293)
4,0.0028 ratio (IC50 of standard peptide / IC50 of test peptide),"SMPNPEGRY [HER2/neu peptide, position 281, 9 amino acids, listing 1 of 2 here]"
5,0.0011 ratio (IC50 of standard peptide / IC50 of test peptide),"LMTFGAKPY [HER2/neu peptide, position 915, 9 amino acids, listing 1 of 3 here]"

# Target: HLA-A*1101 (human)
# Experiment: competition with 125I-labelled probe peptide on purified HLA-A*1101, relative to standard peptide 940.06
row,relative binding ratio,Binder
1,0.0001 ratio (IC50 of standard peptide / IC50 of test peptide),"RLVHRDLAAR (Synthetic peptide) [HER2/neu peptide, position 840, 10 amino acids]"
2,0.12 ratio (IC50 of standard peptide / IC50 of test peptide),"TIDVYMIMVK (Synthetic peptide) [HER2/neu peptide, position 948, 10 amino acids]"
3,0.0007 ratio (IC50 of standard peptide / IC50 of test peptide),"VLIAHNQVR (Synthetic peptide) [HER2/neu peptide, position 84, 9 amino acids]"
4,3.6 ratio (IC50 of standard peptide / IC50 of test peptide),B12
5,0.11 ratio (IC50 of standard peptide / IC50 of test peptide),"RILKETELRK (Synthetic peptide) [HER2/neu peptide, position 713, 10 amino acids]"
6,-0.0002 ratio (IC50 of standard peptide / IC50 of test peptide),"VARCPSGVK (Synthetic peptide) [HER2/neu peptide, position 597, 9 amino acids]"
7,0.075 ratio (IC50 of standard peptide / IC50 of test peptide),"SVFQNLQVIR (Synthetic peptide) [HER2/neu peptide, position 423, 10 amino acids]"
8,0.0038 ratio (IC50 of standard peptide / IC50 of test peptide),"RILKETELR (Synthetic peptide) [HER2/neu peptide, position 713, 9 amino acids]"
9,0.0003 ratio (IC50 of standard peptide / IC50 of test peptide),SMPNPEGRY (Synthetic peptide)
10,0.0001 ratio (IC50 of standard peptide / IC50 of test peptide),B13
11,0.0002 ratio (IC50 of standard peptide / IC50 of test peptide),VLQGLPREY (Synthetic peptide)
12,0.0015 ratio (IC50 of standard peptide / IC50 of test peptide),"RGTQLFEDNY (Synthetic peptide) [HER2/neu peptide, position 103, 10 amino acids]"
13,0.0001 ratio (IC50 of standard peptide / IC50 of test peptide),"RLLDIDETEY (Synthetic peptide) [HER2/neu peptide, position 868, 10 amino acids]"
14,0.0072 ratio (IC50 of standard peptide / IC50 of test peptide),"TVPWDQLFR (Synthetic peptide) [HER2/neu peptide, position 479, 9 amino acids]"
15,0.0005 ratio (IC50 of standard peptide / IC50 of test peptide),"TLIDTNRSR (Synthetic peptide) [HER2/neu peptide, position 182, 9 amino acids]"
16,0.005 ratio (IC50 of standard peptide / IC50 of test peptide),B14
17,0.0072 ratio (IC50 of standard peptide / IC50 of test peptide),"VLVKSPNHVK (Synthetic peptide) [HER2/neu peptide, position 851, 10 amino acids]"
18,0.002 ratio (IC50 of standard peptide / IC50 of test peptide),"SSEDCQSLTR (Synthetic peptide) [HER2/neu peptide, position 208, 10 amino acids]"

# Target: HLA-A*1101 (human)
# Experiment: competition with 125I-labelled probe peptide for purified HLA-A*1101, gel filtration; standard peptide 940.06 [..] (6.0 nM)
row,relative binding ratio,Binder
1,0.0003 ratio (IC50 of standard peptide / IC50 of test peptide),"LGSGAFGTVY [HER2/neu peptide, position 726, 10 amino acids]"
2,0.14 ratio (IC50 of standard peptide / IC50 of test peptide),"LLNWCMQIAK [HER2/neu peptide, position 822, 10 amino acids]"
3,0.0002 ratio (IC50 of standard peptide / IC50 of test peptide),"LIQRNPQLCY [HER2/neu peptide, position 154, 10 amino acids, listing 1 of 2 here]"
4,0.0063 ratio (IC50 of standard peptide / IC50 of test peptide),"LCYQDTILWK [HER2/neu peptide, position 161, 10 amino acids]"
5,0.0003 ratio (IC50 of standard peptide / IC50 of test peptide),"LALTLIDTNR [HER2/neu peptide, position 179, 10 amino acids]"
6,0.0001 ratio (IC50 of standard peptide / IC50 of test peptide),"LIKRRQQKIR [HER2/neu peptide, position 674, 10 amino acids]"
7,0.0003 ratio (IC50 of standard peptide / IC50 of test peptide),"LMTFGAKPY [HER2/neu peptide, position 915, 9 amino acids, listing 2 of 3 here]"
8,0.0003 ratio (IC50 of standard peptide / IC50 of test peptide),"LSPGKNGVVK [HER2/neu peptide, position 1173, 10 amino acids]"

# Target: T3, HLA-A*0101 (human)
# T3 construct: also called HLA-A1
# Experiment: competition with 125I-labelled probe peptide for purified HLA-A*0101, gel filtration; ratio = IC50 of standard peptide 944.02 / IC50 of test peptide
row,relative binding ratio [ratio],Binder
1,-0.0021,"MTFGAKPY [HER2/neu peptide, position 916, 8 amino acids]"
2,0.043,"FSPAFDNLY [HER2/neu peptide, position 1213, 9 amino acids]"
3,0.0011,"GSGAFGTVY [HER2/neu peptide, position 727, 9 amino acids]"
4,0.1,B15
5,0.043,"ETLEEITGY [HER2/neu peptide, position 401, 9 amino acids]"
6,-0.0021,"QIAKGMSY [HER2/neu peptide, position 828, 8 amino acids]"
7,0.03,"LIQRNPQLCY [HER2/neu peptide, position 154, 10 amino acids, listing 2 of 2 here]"
8,0.0042,"CVTACPYNY [HER2/neu peptide, position 295, 9 amino acids, listing 2 of 2 here]"
9,0.0011,"LMTFGAKPY [HER2/neu peptide, position 915, 9 amino acids, listing 3 of 3 here]"
10,0.0017,"PLPSETDGY [HER2/neu peptide, position 1119, 9 amino acids, listing 2 of 2 here]"
11,-0.0021,"TLEEITGY [HER2/neu peptide, position 402, 8 amino acids]"
12,0.005,VLQGLPREY
13,0.003,"PTAENPEY [HER2/neu peptide, position 1241, 8 amino acids]"
14,0.0028,"SMPNPEGRY [HER2/neu peptide, position 281, 9 amino acids, listing 2 of 2 here]"
15,0.0015,"ELHCPALVTY [HER2/neu peptide, position 265, 10 amino acids]"
16,0.055,B16
17,0.029,"ASPLDSTFY [HER2/neu peptide, position 997, 9 amino acids]"
